Data taken from the supplement of paper PMC9112550, “Optimization of the antimicrobial peptide Bac7 by deep mutational scanning” (BMC Biology, 2022).

System: Escherichia coli TOP10
Assay: shrunken log2 fold change of peptide-encoding DNA abundance (4.5 h post-induction vs induction); higher = less antimicrobial activity (less host growth inhibition)
Details: time post-induction: 4.5 h; library: site-saturation at positions 5, 18, 19, 20
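Further: peptides expressed intracellularly from a pBAD plasmid library in pooled LB shake-flask culture, induced with 0.3% L-arabinose, DNA abundance read by NGS, three biological replicates, DESeq2 with apeglm shrinkage.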

Row | Sequence | shrunken log2 fold change
1 | RRIRVRPPRLPRPRPRPVDTPRP | -0.18
2 | RRIRVRPPRLPRPRPRPVEAPRP | 0.0669
3 | RRIRVRPPRLPRPRPRPVEFPRP | 0.0286
4 | RRIRVRPPRLPRPRPRPVEMPRP | -0.0393
5 | RRIRVRPPRLPRPRPRPVETPRP | 0.0754
6 | RRIRVRPPRLPRPRPRPVFCPRP | 0.142
7 | RRIRVRPPRLPRPRPRPVFRPRP | 0.189
8 | RRIRVRPPRLPRPRPRPVHDPRP | -0.745
9 | RRIRVRPPRLPRPRPRPVKNPRP | 0.118
10 | RRIRVRPPRLPRPRPRPVLNPRP | -0.2
11 | RRIRVRPPRLPRPRPRPVLPPRP | 0.0268
12 | RRIRVRPPRLPRPRPRPVMWPRP | 0.365
13 | RRIRVRPPRLPRPRPRPVNCPRP | -0.17
14 | RRIRVRPPRLPRPRPRPVNSPRP | -0.184
15 | RRIRVRPPRLPRPRPRPVRRPRP | 2.95
16 | RRIRVRPPRLPRPRPRPVRYPRP | -0.136
17 | RRIRVRPPRLPRPRPRPVSMPRP | -0.066
18 | RRIRVRPPRLPRPRPRPVSQPRP | 0.051
19 | RRIRVRPPRLPRPRPRPVTHPRP | -0.277
20 | RRIRVRPPRLPRPRPRPVVVPRP | -0.194
21 | RRIRVRPPRLPRPRPRPVWCPRP | 0.423
22 | RRIRVRPPRLPRPRPRPVWNPRP | 0.152
23 | RRIRVRPPRLPRPRPRPWAHPRP | -0.0201
24 | RRIRVRPPRLPRPRPRPWCTPRP | 0.0234
25 | RRIRVRPPRLPRPRPRPWDFPRP | -0.0763

Row | Sequence | shrunken log2 fold change
26 | RRIRVRPPRLPRPRPRPWDTPRP | 0.00866
27 | RRIRVRPPRLPRPRPRPWFIPRP | -0.329
28 | RRIRVRPPRLPRPRPRPWHYPRP | -0.647
29 | RRIRVRPPRLPRPRPRPWIAPRP | 0.201
30 | RRIRVRPPRLPRPRPRPWIYPRP | 0.0875
31 | RRIRVRPPRLPRPRPRPWKVPRP | -0.0954
32 | RRIRVRPPRLPRPRPRPWLAPRP | 0.232
33 | RRIRVRPPRLPRPRPRPWLLPRP | 0.208
34 | RRIRVRPPRLPRPRPRPWMWPRP | 0.091
35 | RRIRVRPPRLPRPRPRPWPAPRP | -0.0676
36 | RRIRVRPPRLPRPRPRPWPCPRP | -0.22
37 | RRIRVRPPRLPRPRPRPWPYPRP | -0.197
38 | RRIRVRPPRLPRPRPRPWQGPRP | 0.0284
39 | RRIRVRPPRLPRPRPRPWTQPRP | -0.219
40 | RRIRVRPPRLPRPRPRPWVFPRP | 0.284
41 | RRIRVRPPRLPRPRPRPWWEPRP | 0.161
42 | RRIRVRPPRLPRPRPRPWYEPRP | -0.337
43 | RRIRVRPPRLPRPRPRPYACPRP | 0.0114
44 | RRIRVRPPRLPRPRPRPYAPPRP | -0.0528
45 | RRIRVRPPRLPRPRPRPYCQPRP | -1.64
46 | RRIRVRPPRLPRPRPRPYCRPRP | -0.213
47 | RRIRVRPPRLPRPRPRPYDAPRP | -0.294
48 | RRIRVRPPRLPRPRPRPYDTPRP | 1.6
49 | RRIRVRPPRLPRPRPRPYESPRP | -0.0252
50 | RRIRVRPPRLPRPRPRPYETPRP | 0.0231

Row | Sequence | shrunken log2 fold change
51 | RRIRVRPPRLPRPRPRPYHIPRP | -1.2
52 | RRIRVRPPRLPRPRPRPYIRPRP | -0.434
53 | RRIRVRPPRLPRPRPRPYKIPRP | -0.726
54 | RRIRVRPPRLPRPRPRPYLMPRP | -0.587
55 | RRIRVRPPRLPRPRPRPYMDPRP | -0.0331
56 | RRIRVRPPRLPRPRPRPYNWPRP | -0.603
57 | RRIRVRPPRLPRPRPRPYPIPRP | -0.0204
58 | RRIRVRPPRLPRPRPRPYPLPRP | -0.478
59 | RRIRVRPPRLPRPRPRPYQEPRP | 0.00202
60 | RRIRVRPPRLPRPRPRPYRRPRP | -0.0654
61 | RRIRVRPPRLPRPRPRPYRVPRP | -0.0295
62 | RRIRVRPPRLPRPRPRPYSYPRP | 0.128
63 | RRIRVRPPRLPRPRPRPYTAPRP | -0.649
64 | RRIRVRPPRLPRPRPRPYWSPRP | 0.000469
65 | RRIRVRPPRLPRPRPRPYWVPRP | -0.0928
66 | RRIRVRPPRLPRPRPRPYYPPRP | -0.414
67 | RRIRWRPPRLPRPRPRPAADPRP | 1.21
68 | RRIRWRPPRLPRPRPRPAAKPRP | 0.482
69 | RRIRWRPPRLPRPRPRPAAQPRP | -0.0638
70 | RRIRWRPPRLPRPRPRPADRPRP | 0.0754
71 | RRIRWRPPRLPRPRPRPAEIPRP | 0.107
72 | RRIRWRPPRLPRPRPRPAELPRP | -0.0722
73 | RRIRWRPPRLPRPRPRPAETPRP | 0.0775
74 | RRIRWRPPRLPRPRPRPAEVPRP | 0.204
75 | RRIRWRPPRLPRPRPRPAFEPRP | 0.183

Row | Sequence | shrunken log2 fold change
76 | RRIRWRPPRLPRPRPRPAFFPRP | 0.111
77 | RRIRWRPPRLPRPRPRPAFHPRP | 0.153
78 | RRIRWRPPRLPRPRPRPAGCPRP | 0.28
79 | RRIRWRPPRLPRPRPRPAKEPRP | -0.01
80 | RRIRWRPPRLPRPRPRPALKPRP | 0.0103
81 | RRIRWRPPRLPRPRPRPALYPRP | 0.232
82 | RRIRWRPPRLPRPRPRPAMLPRP | 0.365
83 | RRIRWRPPRLPRPRPRPAMSPRP | 0.403
84 | RRIRWRPPRLPRPRPRPANFPRP | 0.106
85 | RRIRWRPPRLPRPRPRPARFPRP | 0.461
86 | RRIRWRPPRLPRPRPRPASQPRP | 0.271
87 | RRIRWRPPRLPRPRPRPASYPRP | 0.151
88 | RRIRWRPPRLPRPRPRPAVHPRP | 0.631
89 | RRIRWRPPRLPRPRPRPAVLPRP | 0.117
90 | RRIRWRPPRLPRPRPRPAWFPRP | 0.251
91 | RRIRWRPPRLPRPRPRPAWPPRP | 0.558
92 | RRIRWRPPRLPRPRPRPAWTPRP | 0.428
93 | RRIRWRPPRLPRPRPRPCADPRP | 0.579
94 | RRIRWRPPRLPRPRPRPCAHPRP | -0.107
95 | RRIRWRPPRLPRPRPRPCANPRP | 0.0268
96 | RRIRWRPPRLPRPRPRPCDAPRP | 0.138
97 | RRIRWRPPRLPRPRPRPCELPRP | 0.0544
98 | RRIRWRPPRLPRPRPRPCFAPRP | 0.263
99 | RRIRWRPPRLPRPRPRPCKGPRP | -0.186
100 | RRIRWRPPRLPRPRPRPCMLPRP | -0.215

Row | Sequence | shrunken log2 fold change
101 | RRIRWRPPRLPRPRPRPCMNPRP | 0.297
102 | RRIRWRPPRLPRPRPRPCPMPRP | -0.0512
103 | RRIRWRPPRLPRPRPRPCTEPRP | -0.0149
104 | RRIRWRPPRLPRPRPRPCTPPRP | -0.0412
105 | RRIRWRPPRLPRPRPRPCVNPRP | 0.0912
106 | RRIRWRPPRLPRPRPRPCWTPRP | 0.0677
107 | RRIRWRPPRLPRPRPRPCWWPRP | 0.22
108 | RRIRWRPPRLPRPRPRPCYPPRP | -0.466
109 | RRIRWRPPRLPRPRPRPDCDPRP | 0.799
110 | RRIRWRPPRLPRPRPRPDCSPRP | 0.113
111 | RRIRWRPPRLPRPRPRPDCVPRP | 0.197
112 | RRIRWRPPRLPRPRPRPDGYPRP | -0.0244
113 | RRIRWRPPRLPRPRPRPDILPRP | 0.0776
114 | RRIRWRPPRLPRPRPRPDISPRP | -0.135
115 | RRIRWRPPRLPRPRPRPDKHPRP | -0.243
116 | RRIRWRPPRLPRPRPRPDKPPRP | 0.0507
117 | RRIRWRPPRLPRPRPRPDPAPRP | 0.663
118 | RRIRWRPPRLPRPRPRPDPQPRP | -0.00387
119 | RRIRWRPPRLPRPRPRPDPRPRP | 0.751
120 | RRIRWRPPRLPRPRPRPDRTPRP | 0.179
121 | RRIRWRPPRLPRPRPRPDSSPRP | -0.238
122 | RRIRWRPPRLPRPRPRPDTQPRP | -0.0933
123 | RRIRWRPPRLPRPRPRPDVAPRP | 1.3
124 | RRIRWRPPRLPRPRPRPDVMPRP | 0.126
125 | RRIRWRPPRLPRPRPRPDWMPRP | 0.212

Row | Sequence | shrunken log2 fold change
126 | RRIRWRPPRLPRPRPRPDWRPRP | -0.0316
127 | RRIRWRPPRLPRPRPRPDYRPRP | -0.0424
128 | RRIRWRPPRLPRPRPRPEAGPRP | 0.877
129 | RRIRWRPPRLPRPRPRPEALPRP | 0.174
130 | RRIRWRPPRLPRPRPRPEAQPRP | 0.779
131 | RRIRWRPPRLPRPRPRPEAYPRP | 0.212
132 | RRIRWRPPRLPRPRPRPEDIPRP | -0.0433
133 | RRIRWRPPRLPRPRPRPEHGPRP | 0.265
134 | RRIRWRPPRLPRPRPRPEICPRP | 0.127
135 | RRIRWRPPRLPRPRPRPEKIPRP | 2.76
136 | RRIRWRPPRLPRPRPRPELEPRP | 1.35
137 | RRIRWRPPRLPRPRPRPELNPRP | 0.259
138 | RRIRWRPPRLPRPRPRPELPPRP | 0.243
139 | RRIRWRPPRLPRPRPRPELWPRP | 0.729
140 | RRIRWRPPRLPRPRPRPEMDPRP | 0.7
141 | RRIRWRPPRLPRPRPRPEMEPRP | 0.451
142 | RRIRWRPPRLPRPRPRPENAPRP | 0.275
143 | RRIRWRPPRLPRPRPRPEPWPRP | 0.725
144 | RRIRWRPPRLPRPRPRPEQSPRP | 0.678
145 | RRIRWRPPRLPRPRPRPEREPRP | 0.295
146 | RRIRWRPPRLPRPRPRPERHPRP | 0.277
147 | RRIRWRPPRLPRPRPRPERLPRP | 0.277
148 | RRIRWRPPRLPRPRPRPESKPRP | 0.268
149 | RRIRWRPPRLPRPRPRPETSPRP | 0.7
150 | RRIRWRPPRLPRPRPRPETTPRP | 0.234
